Target: SARS-CoV-2 spike RBD (called RBD S glycoprotein) (SARS-CoV-2 (2019-nCoV), UniProt P0DTC2 319-541)
Assay: direct ELONA
Conditions: protein: commercial; label: 5'-biotin

B1: CoV2-RBD-1C (ssDNA)
DNA: CAGCACCGACCTTGTGCTTTGGGAGTGCTGGTCCAAGGGCGTTAATGGACA
binding result: binds

From article PMC9559407, “Enzyme linked oligonucleotide assay for the sensitive detection of SARS-CoV-2 variants”
